Results reported in US20180318451A1 (published 2018).

T1: ovalbumin (UniProt P01012 2-386)
T1 sequence (looked up): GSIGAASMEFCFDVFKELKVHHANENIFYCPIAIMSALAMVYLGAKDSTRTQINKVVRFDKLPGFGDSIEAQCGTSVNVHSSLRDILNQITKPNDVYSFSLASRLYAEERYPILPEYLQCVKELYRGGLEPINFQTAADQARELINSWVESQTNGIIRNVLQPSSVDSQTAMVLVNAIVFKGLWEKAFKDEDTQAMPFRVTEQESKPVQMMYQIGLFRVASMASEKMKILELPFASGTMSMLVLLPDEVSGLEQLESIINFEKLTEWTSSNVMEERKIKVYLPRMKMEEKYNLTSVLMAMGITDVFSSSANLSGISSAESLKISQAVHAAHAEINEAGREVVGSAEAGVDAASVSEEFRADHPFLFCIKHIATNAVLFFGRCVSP


What was measured:
[1] = biological target: T2, rhPSMA, extracellular part of human PSMA (residues 44-750) with its native N-terminus (human, UniProt Q04609 44-750, N-glycosylated (made in Schneider S2 insect cells)); experiment: ELISA, rhPSMA coated on MaxiSorp plate
T2 construct: range 44-750; No tag; also called wild-type rhPSMA; rhGCPII
Source text: Enriched lipocalin variants from phage display were subjected to ELISA screening after subcloning of the central BstXI gene cassette on pNGAL98, which also encodes the N-terminal OmpA signal sequence directing the expressed protein into the bacterial periplasm and a C-terminal Strep-tag II for purification (Schmidt, T. G. & Skerra, A. [2007] Nat. Protoc. 2:1528-1535). After transformation of E. coli TG1-F- (Kim, H. J. et al. [2009] J. Am. Chem. Soc. 131:3565-3576) with the ligation mixture, randomly picked colonies were inoculated in a 96-well plate filled with 100 μL of Terrific broth (TB) media supplemented with 100 μg/mL ampicillin per well. Anticalin expression was induced at an optical density of OD₅₅₀=0.3-0.5 by addition of 20 μL TB/Amp containing 1.2 μg/mL anhydrotetracycline (aTc; ACROS Organics, 233131000) overnight at 20° C. […] After 1 h incubation at room temperature, plates were washed three times with PBS/T and bound lipocalin variants were detected by means of their C-terminal Strep-tag II using StrepTactin conjugated to alkaline phosphatase (IBA, 2-1503-001), diluted 1:5,000 in PBS, for 1 h. Signals were developed by hydrolysis of 0.5 mg/mL p-nitrophenyl phosphate in 0.1 M NaCl, 5 mM MgCl₂, 0.1 M Tris/HCl, pH 8.8, and monitored via absorbance measurement at 405 nm with an Infinite 200 PRO microplate reader (Tecan). […]

ovalbumin = biological target: T1, ovalbumin; experiment: ELISA, ovalbumin-coated wells
Source text: Enriched lipocalin variants from phage display were subjected to ELISA screening after subcloning of the central BstXI gene cassette on pNGAL98, which also encodes the N-terminal OmpA signal sequence directing the expressed protein into the bacterial periplasm and a C-terminal Strep-tag II for purification (Schmidt, T. G. & Skerra, A. [2007] Nat. Protoc. 2:1528-1535). After transformation of E. coli TG1-F- (Kim, H. J. et al. [2009] J. Am. Chem. Soc. 131:3565-3576) with the ligation mixture, randomly picked colonies were inoculated in a 96-well plate filled with 100 μL of Terrific broth (TB) media supplemented with 100 μg/mL ampicillin per well. Anticalin expression was induced at an optical density of OD₅₅₀=0.3-0.5 by addition of 20 μL TB/Amp containing 1.2 μg/mL anhydrotetracycline (aTc; ACROS Organics, 233131000) overnight at 20° C. The periplasmic extract was prepared as previously described²¹ and applied to 96-well MaxiSorp plates (Nunc, 442404) coated with rhPSMA (5 μg/mL in TBS) and blocked with BSA. Ovalbumin (10 μg/mL in TBS) served as non-related control protein in parallel. After 1 h incubation at room temperature, plates were washed three times with PBS/T and bound lipocalin variants were detected by means of their C-terminal Strep-tag II using StrepTactin conjugated to alkaline phosphatase (IBA, 2-1503-001), diluted 1:5,000 in PBS, for 1 h. Signals were developed by hydrolysis of 0.5 mg/mL p-nitrophenyl phosphate in 0.1 M NaCl, 5 mM MgCl₂, 0.1 M Tris/HCl, pH 8.8, and monitored via absorbance measurement at 405 nm with an Infinite 200 PRO microplate reader (Tecan).
Individual colonies were used for micro-scale expression in a 96-well plate and crude E. coli lysates from these cultures were screened in an ELISA for Anticalins having PSMA-binding activity. To this end, MaxiSorp plates coated with glycosylated rhPSMA were used as a target, whereas ovalbumin-coated wells were used as negative control to assess non-specific binding. Bound Anticalins were detected via the C-terminal Strep-tag II.

[2] = biological target: T2, rhPSMA, extracellular part of human …; experiment: SPR (BIAcore 2000), rhPSMA amine-coupled to CM5 chip, Anticalin as analyte
Experimental: Anticalin binding was detected using StrepTactin/AP conjugate, followed by chromogenic reaction. Absorption was plotted against the Anticalin concentration and data were analyzed by curve fitting. Binding curves for the best performing clones A3 and A3A5 are shown as solid lines. (C-E) SPR sensograms measured for Anticalins A3, A3A5 and A3A5.1 on a BIAcore 2000 instrument. Approximately 500 RU of rhPSMA was immobilized on a CM5 sensor chip by amine coupling. A dilution series from 64 to 2 nM of the purified Anticalin in HBS was applied and the resulting curves were fitted according to a Langmuir 1:1 binding model. (F) Comparison of parameters from real-time SPR analysis for Anticalins investigated in C-E, together with A3A5.7, in a kₒₙ/koff plot.
(§1) Surface plasmon resonance (SPR) spectroscopy was performed on a BIAcore 2000 instrument (BIAcore) following published procedures (Gebauer, M. et al. [2013] J. Mol. Biol. 425:780-802; De Crescenzo, G. et al. [2008] J. Mol. Recognit. 21:256-266). rhPSMA (1 nM in 10 mM Na-acetate pH 5.0) was immobilized on a CM5 sensor chip (BIAcore) using an amine coupling kit (GE Healthcare, BR100050), resulting in around 500 resonance units (ΔRU). The purified Anticalins were diluted in HEPES buffered saline (HBS; 10 mM HEPES/NaOH, 150 mM NaCl, pH 7.4) with 0.005% v/v Tween 20 to concentrations from 64-2 nM. The instrument was operated using the same running buffer at a flow rate of 25 μL/min. […] Regeneration of the sensor chip was achieved by up to four injections of 10 μL glycine/HCl, pH 2.0. The sensorgrams were corrected by double subtraction of the corresponding signals measured for the in-line control blank channel and an averaged baseline determined from three buffer blank injections³¹. Kinetic parameters were determined by data fitting using a 1:1 Langmuir binding model with BIAevaluation software version 4.1 (BIAcore).
To precisely determine kinetic and thermodynamic binding constants of the PSMA-specific Anticalin A3 and its variants, surface plasmon resonance (SPR) real-time analyses was performed on a BIAcore 2000 instrument. To this end, rhPSMA was chemically coupled to the carboxymethyl dextran matrix of a sensorchip using amine chemistry and a concentrations series of each Anticalin was applied.

[3] = biological target: T2, rhPSMA, extracellular part of human …; experiment: ELISA, rhPSMA coated on MaxiSorp plate, Anticalin dilution series
Source text: (§2) FIG. 4: Anticalin affinities towards PSMA as determined by ELISA and BIAcore measurements. Binding activities of Anticalins selected from the original naïve library (A) or resulting from subsequent affinity maturation of the A3 variant (B) were compared in an ELISA. A 96-well MaxiSorp plate was coated with rhPSMA (or ovalbumin as a negative control, not shown) and purified Anticalin variants were applied in dilution series. Anticalin binding was detected using StrepTactin/AP conjugate, followed by chromogenic reaction. Absorption was plotted against the Anticalin concentration and data were analyzed by curve fitting. Binding curves for the best performing clones A3 and A3A5 are shown as solid lines. (C-E) SPR sensograms measured for Anticalins A3, A3A5 and A3A5.1 on a BIAcore 2000 instrument. Approximately 500 RU of rhPSMA was immobilized on a CM5 sensor chip by amine coupling. […]
(§3) 50 μL of rhPSMA (5 μg/mL in TBS) was directly adsorbed onto the surface of a MaxiSorp 96-well plate overnight at 4° C. […] The plates were washed three times and bound Anticalins were detected with StrepTactin-AP as described further above. The data were analyzed using Prism 5 software (GraphPad) and absorption values (A) were fitted according to the formula ΔA=Aₘₐₓ·[Lₜₒₜ]/(KD+[Lₜₒₜ]) with the concentration of the applied lipocalin variant [Lₜₒₜ] and the dissociation constant KD.

[4] = biological target: T2, rhPSMA, extracellular part of human …; experiment: SPR (BIAcore 2000), rhPSMA on chip
Experimental: as §1
To precisely determine kinetic and thermodynamic binding constants of the PSMA-specific Anticalin A3 and its variants, surface plasmon resonance (SPR) real-time analyses was performed on a BIAcore 2000 instrument. […]

[5] = biological target: T2, rhPSMA, extracellular part of human …; experiment: ELISA, rhPSMA coated on MaxiSorp plate, Anticalin dilution series, detection by StrepTactin/AP
Source text: as §2, §3

[6] = biological target: T2, rhPSMA, extracellular part of human …; experiment: SPR (BIAcore), rhPSMA on chip, Anticalin as analyte
Experimental: as §1
Several combinations of mutations occurring in the PSMA-specific Lcn2 variants A3A5.1 (carrying 5 new mutations) and A3A5.7 (carrying 4 new mutations) were prepared in order to investigate the relevance of the mutations that were found during affinity maturation for improved PSMA binding with the aim to create a combined Anticalin variant suitable for further protein engineering studies. A first combination, containing solely the mutations located in the loop regions of the Anticalins, was carried out by introducing the following mutations into the sequence of A3A5 (see SEQ ID NO:2): (i) a Y at position 71 as also present in A3A5.1, (ii) an N at position 74 as also present in A3A5.7, (iii) a D at position 103 as also present in A3A5.1. This triple substitution variant, termed A3A5.8, was obtained by gene synthesis, cloned and subsequently expressed (as described in Example 1).

T2 sequence (Q04609 44-750 limits assumed): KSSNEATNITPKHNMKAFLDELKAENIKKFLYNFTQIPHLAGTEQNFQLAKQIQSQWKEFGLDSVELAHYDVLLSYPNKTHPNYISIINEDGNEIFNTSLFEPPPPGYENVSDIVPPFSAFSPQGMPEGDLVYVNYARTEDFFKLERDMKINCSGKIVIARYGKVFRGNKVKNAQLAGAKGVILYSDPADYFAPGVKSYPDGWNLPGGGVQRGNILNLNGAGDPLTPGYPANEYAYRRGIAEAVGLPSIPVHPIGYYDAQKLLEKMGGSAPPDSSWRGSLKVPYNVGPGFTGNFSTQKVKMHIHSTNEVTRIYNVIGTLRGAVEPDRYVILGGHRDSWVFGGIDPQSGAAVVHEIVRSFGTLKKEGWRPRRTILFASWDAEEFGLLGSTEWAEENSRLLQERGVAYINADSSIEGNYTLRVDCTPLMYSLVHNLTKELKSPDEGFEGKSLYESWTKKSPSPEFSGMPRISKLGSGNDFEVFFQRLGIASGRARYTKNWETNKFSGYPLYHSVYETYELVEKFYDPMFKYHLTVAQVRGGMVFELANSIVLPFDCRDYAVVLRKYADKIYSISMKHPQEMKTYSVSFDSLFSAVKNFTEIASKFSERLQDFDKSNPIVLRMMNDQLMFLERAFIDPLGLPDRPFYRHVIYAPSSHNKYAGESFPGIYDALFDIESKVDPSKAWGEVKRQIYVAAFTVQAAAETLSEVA

Binder | binding result (ovalbumin) | Kd [2] | koff [2] | kon [2] | further results
Anticalin A3A5 (designed binder, Differs from A3 by Val for Met at position 40; monomeric, 21 kDa; also called variant A3A5; not shown: C-terminal Strep-tag II) QDSTSDLIPAPPLSKVPLQQNFQDNQFHGKWYVVGLAGNVILREDKDPYKMSATIYELKEDKSYNVTNVRFYLKKCYYTIATFVPGSQPGEFTLGTIKSGPGKTSGLVRVVSTNYNQHAMVFFKEVQQNREWFIITLYGRTKELTSELKENFIRFSKSLGLPENHIVFPVPIDQCIDG |  | 2.5 nM | 0.00017 s⁻¹ | 71000 M⁻¹ s⁻¹ | Kd [3]: 2.1 nM; fold improvement of KD against A3 [4]: 2 fold
Anticalin A3 (designed binder, Lcn2-derived lipocalin variant, monomeric, made by periplasmic secretion in E. coli from pNGAL98 with a C-terminal Strep-tag II; also called variant A3; not shown: C-terminal Strep-tag II) QDSTSDLIPAPPLSKVPLQQNFQDNQFHGKWYVVGLAGNMILREDKDPYKMSATIYELKEDKSYNVTNVRFYLKKCYYTIATFVPGSQPGEFTLGTIKSGPGKTSGLVRVVSTNYNQHAMVFFKEVQQNREWFIITLYGRTKELTSELKENFIRFSKSLGLPENHIVFPVPIDQCIDG | no binding | 4.8 nM | 0.00058 s⁻¹ | 120000 M⁻¹ s⁻¹ | Kd [5]: 6 nM; Kd [3]: 5.8 nM
Anticalin A3A5.1 (designed binder, Soluble form as in SPR; also called variant A3A5.1; not shown: C-terminal Strep-tag II) QDSTSDLIPAPPLSKVPLQQNFQDNQFHGKWYVVGLAGNVILREDKDPYKMSATIYELNEDKSYNVTNVRYYLKKCYYTIATFVPGSQPGEYTLGTIKSGPGDTSGLVRVVSTNYNQHAMVFFKEVQQNREWFIITLYGRTKELTSKLKENFIRFSKSLGLPENHIVFPVPIDQCIDG |  | 0.66 nM | 0.00014 s⁻¹ | 210000 M⁻¹ s⁻¹ | 
Anticalin A3A5.7 (designed binder, Soluble form as in SPR; also called variant A3A5.7; not shown: C-terminal Strep-tag II) QDSTSDLIPAPPLSKVPLQQNFQDNQFHGKWYVVGLAGNVILREDKDPYKMSATIYELKEDKSYNVTNVRFYLNKCYYTIATFVPGSRPGEFTLGTIKSGPGKTSGLVRVVSTNYSQHAMVFFKEVQQNREWFIITLYGRTKELTSKLKENFIRFSKSLGLPENHIVFPVPIDQCIDG |  | 0.54 nM | 0.00014 s⁻¹ | 270000 M⁻¹ s⁻¹ | 
Anticalin A3A5.9 (designed binder, A3A5.8 with K for E at position 147; also called variant A3A5.9; not shown: C-terminal Strep-tag II) QDSTSDLIPAPPLSKVPLQQNFQDNQFHGKWYVVGLAGNVILREDKDPYKMSATIYELKEDKSYNVTNVRYYLNKCYYTIATFVPGSQPGEFTLGTIKSGPGDTSGLVRVVSTNYNQHAMVFFKEVQQNREWFIITLYGRTKELTSKLKENFIRFSKSLGLPENHIVFPVPIDQCIDG |  |  |  |  | Kd [6]: 0.74 nM; koff [6]: 0.00016 s⁻¹; kon [6]: 220000 M⁻¹ s⁻¹

More lines, main results first:

binding result (ovalbumin) | Kd [2] | koff [2] | kon [2] | Binder | further results
no binding |  |  |  | Anticalin candidate H5 (designed binder, not shown: C-terminal Strep-tag II) QDSTSDLIPAPPLSKVPLQQNFQDNQFHGKWYVVGTAGNWPLREDKDPHKMSATIYELKEDKSYNVTNVQFSSKKCLYFIGTFVPGSQPGEFTLGPIKSAPGQTSGLVRVVSTNYNQHAMVFFKQVIQNREAFIITLYGRTKELTSELKENFIRFSKSLGLPENHIVFPVPIDQCIDG | binding result [1]: binds
no binding |  |  |  | Anticalin candidate A2 (designed binder, not shown: C-terminal Strep-tag II) QDSTSDLIPAPPLSKVPLQQNFQDNQFHGKWYVVGRAGNKPLREDKDPLKMWATIYELKEDKSYNVTIVWFDFKKCWYRISTFVPGSQPGEFTLGRIKSAPGVTSGLVRVVSTNYNQHAMVFFKYVFQNREWFHITLYGRTKELTSELKENFIRFSKSLGLPENHIVFPVPIDQCIDG | binding result [1]: binds
